Data on 2 molecules can be found in patent publication US8431396B2, “Anti-angiogenic peptides” (The Cleveland Clinic Foundation, priority 2003, dated 2013).

For data set [1], the system named is MS1 mouse endothelial cells. Briefly: MS1 endothelial cells infected with adenovirus expressing WT-TIMP3 or TIMP3Cys1-Ser: apoptosis and [3H]thymidine incorporation. The data set is classed as cell-based. As to the method:
(§1) MS1 mouse endothelial cells\(American Type Culture Collection, Manassas, Va.) were cultured until 80% confluent and infected with adenovirus as described. Cells were infected at 50 or 200 plaque-forming units per cell for 18 h. Medium was then replaced with fresh complete medium and left for 48 h until analysis.
A modified Boyden chamber assay for migration and proliferation assays were carried out as described.
(Incorporation of labelled thymidine or its analogues reports DNA synthesis.)

The next data set concerns MS1 endothelial cells. Nature of the data set: 125I-VEGF165 binding to adenovirus-infected MS1 endothelial cells. More on the design: species or system mouse. The following applies: cells infected with adenovirus expressing TIMP3Cys1-Ser. As to the method: Radioligand binding is expressed as percent binding and is the mean±s.e.m. of triplicate samples. […] All values are expressed as mean±s.e.m. of triplicate samples. […] Binding is expressed as mean±s.e.m. Data is shown as percent binding of triplicate samples, with binding to PAE-KDR cells in the absence of any inhibitor as 100%. *, P<0.01. […] P<0.01.
as §1

Data set [2] has as its system MMPs. Nature of the data set: Reverse zymography of ECM extracts (MMP-inhibitory activity). The data set is classed as biochemical. The following applies: MS1 cells infected with Rad-TIMP3Cys1-Ser vs wild-type. As to the method: Conditioned medium, cell lysates and ECM fractions from transfected cells were prepared. Equal amounts of protein were loaded onto a 12% gel with 1 mg/ml gelatin plus RPE cell-conditioned medium, as a source of MMPs, for reverse zymography and processed as described.

Another data set has as its system soluble VEGFR-2. Nature of the data set: Soluble VEGFR-2 (sKDR) in conditioned medium (ELISA). The data set is classed as cell-based, human. To be noted: mutant cells; data not shown. A general note: In an ELISA, binding on a coated surface is turned into a signal by an enzyme label.
The next data set deals with T1, VEGFR-2 (KDR) (Homo sapiens, UniProt P35968).
T1 construct: To determine whether these receptor isoforms represent full-length VEGFR-2; expressed in transfected cells; host or cells: porcine aortic endothelial (PAE) cells
Briefly: [125I]VEGF binding in transfected PAEKDR cell lines. The following applies: PAEKDR cells expressing mutant TIMP3 vs vector. As to the method: PAEKDR cells were transfected with TIMP3 cDNA or empty vector using Lipofectamine reagent (Gibco-BRL Rockville, Md.). Stable clones were isolated using Hygromycin selection.
After washing, the cell monolayers were solubilized with lysis buffer (20 mM Tris HCl pH 7.5, 1% triton X 100 and 10% glycerol), and the radioactivity measured in a gamma counter.

For data set [3], the system named is PAEKDR cells. Briefly: VEGF-stimulated migration (modified Boyden chamber) of transfected PAEKDR cells. The data set is classed as cell-based, porcine. The following applies: VEGF 50 ng/ml. As to the method:
A modified Boyden chamber assay was carried out as described previously 34. Briefly, 8.0 μm pore PVPF polycarbonate membranes were pre-coated with 100 μg/ml collagen type I in 0.2 N acetic acid (Cohesion technologies, INC. Pala Alto, Calif.). […] Chamber was then incubated for 4 hrs at 37° C. in a 5% CO2 humidified incubator. Cells remaining on the top of the filter were removed. Cells on the bottom surface of the filter were fixed, stained and mounted. The number of migrating cells per well was counted microscopically.

Another data set has as its target T2, KDR (Homo sapiens, UniProt P35968).
T2 construct: To determine whether these receptor isoforms represent full-length VEGFR-2; expressed in transfected cells; host or cells: porcine aortic endothelial (PAE) cells
Briefly: VEGF-stimulated KDR tyrosine phosphorylation in membrane fractions (Western blot). The class given is cell-based. The following applies: mutant cells; data not shown. As to the method:
2 day serum free conditioned medium (CM) was collected from subconfluent cells cultured on six-well plates (Costar). In some cases the CM was further concentrated with heparin-agarose gels (Bio-rad). The cell monolayer was dislodged from the culture plates following a 10 min incubation in Ca2+, Mg2+ free phosphate buffered saline (PBS) containing 2.5 mM EDTA. After several rinses in PBS and water, the ECM was scraped in a small volume of electrophoresis sample buffer without reducing agent for analyses. Plasma membrane (PM) fractions were prepared from cells centrifuged at 500 g and 4° C. for 5 min The supernatant was discarded and the cell pellets were resuspended in PBS containing protease inhibitors, lysed with a 26-gauge syringe needle, and centrifuged at 3,000 g at 4° C. for 15 minutes. The supernatant was centrifuged at […] at 4° C. for 1 hr. The PM pellets were suspended in lysis buffer containing protease inhibitors. In some instances the membrane fraction of cells was prepared using ProteoExtract Subcellular Proteome Extaction Kit (EMD Biosciences, Inc).
Cell fractions or immunoprecipitates of the lysates with the indicated antibodies were subjected to SDS-PAGE. Proteins were detected with either a HRP-conjugated anti-rabbit or anti mouse IgG antibody (Amersham Pharmacia Biotech., Piscataway, N.J.) followed by ECL. […]
(In general: A western blot detects proteins with antibodies after separation by electrophoresis.)

Data set [4] relates to ERK1 (p44) and ERK2 (p42). Briefly: VEGF-stimulated ERK1/2 phosphorylation in transfected PAEKDR cells (Western blot). The class given is cell-based. The following applies: mutant cells; data not shown. As to the method:
Cell fractions or immunoprecipitates of the lysates with the indicated antibodies were subjected to SDS-PAGE. Proteins were detected with either a HRP-conjugated anti-rabbit or anti mouse IgG antibody (Amersham Pharmacia Biotech., Piscataway, N.J.) followed by ECL. The blots were restripped with Western ReProbe™ solution (Genotech) for 30 minutes and reprobed as indicated.
Activation of MAP kinase is a known activated VEGFR-2 downstream signaling event. We measured the phosphorylation of two MAP kinases, ERK1 (p44) and ERK2 (p42) by western blot analysis of membrane fractions in WT and mutant ECs.

The next data set concerns surface KDR. Briefly: Surface KDR immunofluorescence staining. The class given is cell-based. To be noted: clone KDR-2 antibody; data not shown. As to the method:
(§2) For immunostaining, subconfluent cells cultured on Falcon cultureslides (BD, Biosciences) were used. For surface KDR detection, cells were fixed in 1% paraformaldehyde for 10 min at 4° C. Following blocking with 1% BSA cells were incubated with anti-extracellular VEGFR-2 monoclonal antibody for 1 h at room temperature. Surface KDR was detected with biotinylated anti-mouse […] (1:1000) and Texas Red avidin D (1:1500) using standard procedures. […] The cells were fixed with 3.7% paraformaldehyde in PBS for 30 min at 4° C. and permeabilized with 0.2 Triton X-100 for 20 min at room temperature. Following rinsing with PBS the cells were incubated with fluorescein isothiocyanate (FITC)-labeled phalloidin in PBS (0.66 μg/ml, Sigma) for 20 min at room temperature washed with PBS and analyzed by fluorescence microscopy.

For data set [5], the system named is MMPs. Briefly: Reverse zymography of ECM and CM of transfected PAEKDR cells. The class given is biochemical. To be noted: PAEKDR cells expressing WT or mutant TIMP3. As to the method: Conditioned medium, cell lysates and ECM fractions from transfected cells were prepared as described previously (Qi et al., 2002). Equal amounts of protein were loaded onto a 12% gel with 1 mg/ml gelatin plus RPE cell-conditioned media, as a source of MMPs, for reverse zymography and processed as described previously (Pavloff et al., 1992).

The test system of data set [6] is PAEKDR cells. Nature of the data set: VEGF-stimulated actin reorganization / membrane ruffles. To be noted: 50 ng/ml VEGF for 15 min. The class given is cell-based, porcine. As to the method:
as §2

The subject of data set [7] is PAEKDR cells. Nature of the data set: Tube formation assay in type 1 collagen gels. The data set is classed as cell-based, porcine. The following applies: 50 ng/ml VEGF; three-dimensional collagen gels. As to the method:
Type 1 collagen was mixed with 10×DMEM and 0.1 M NaOH (8:1:1), adjusted to a solution containing 10 μg/ml growth factor reduced matrigel matrix (BD, Biosciences), and then distributed in 48-well dishes. […] After 4 h of incubation at 37° C., a second layer of collagen was added, and cultures were kept under the same conditions as above described. Tube formation was examined using a phase-contrast microscopy at the indicated time points.

T2 sequence (P35968 20-1356): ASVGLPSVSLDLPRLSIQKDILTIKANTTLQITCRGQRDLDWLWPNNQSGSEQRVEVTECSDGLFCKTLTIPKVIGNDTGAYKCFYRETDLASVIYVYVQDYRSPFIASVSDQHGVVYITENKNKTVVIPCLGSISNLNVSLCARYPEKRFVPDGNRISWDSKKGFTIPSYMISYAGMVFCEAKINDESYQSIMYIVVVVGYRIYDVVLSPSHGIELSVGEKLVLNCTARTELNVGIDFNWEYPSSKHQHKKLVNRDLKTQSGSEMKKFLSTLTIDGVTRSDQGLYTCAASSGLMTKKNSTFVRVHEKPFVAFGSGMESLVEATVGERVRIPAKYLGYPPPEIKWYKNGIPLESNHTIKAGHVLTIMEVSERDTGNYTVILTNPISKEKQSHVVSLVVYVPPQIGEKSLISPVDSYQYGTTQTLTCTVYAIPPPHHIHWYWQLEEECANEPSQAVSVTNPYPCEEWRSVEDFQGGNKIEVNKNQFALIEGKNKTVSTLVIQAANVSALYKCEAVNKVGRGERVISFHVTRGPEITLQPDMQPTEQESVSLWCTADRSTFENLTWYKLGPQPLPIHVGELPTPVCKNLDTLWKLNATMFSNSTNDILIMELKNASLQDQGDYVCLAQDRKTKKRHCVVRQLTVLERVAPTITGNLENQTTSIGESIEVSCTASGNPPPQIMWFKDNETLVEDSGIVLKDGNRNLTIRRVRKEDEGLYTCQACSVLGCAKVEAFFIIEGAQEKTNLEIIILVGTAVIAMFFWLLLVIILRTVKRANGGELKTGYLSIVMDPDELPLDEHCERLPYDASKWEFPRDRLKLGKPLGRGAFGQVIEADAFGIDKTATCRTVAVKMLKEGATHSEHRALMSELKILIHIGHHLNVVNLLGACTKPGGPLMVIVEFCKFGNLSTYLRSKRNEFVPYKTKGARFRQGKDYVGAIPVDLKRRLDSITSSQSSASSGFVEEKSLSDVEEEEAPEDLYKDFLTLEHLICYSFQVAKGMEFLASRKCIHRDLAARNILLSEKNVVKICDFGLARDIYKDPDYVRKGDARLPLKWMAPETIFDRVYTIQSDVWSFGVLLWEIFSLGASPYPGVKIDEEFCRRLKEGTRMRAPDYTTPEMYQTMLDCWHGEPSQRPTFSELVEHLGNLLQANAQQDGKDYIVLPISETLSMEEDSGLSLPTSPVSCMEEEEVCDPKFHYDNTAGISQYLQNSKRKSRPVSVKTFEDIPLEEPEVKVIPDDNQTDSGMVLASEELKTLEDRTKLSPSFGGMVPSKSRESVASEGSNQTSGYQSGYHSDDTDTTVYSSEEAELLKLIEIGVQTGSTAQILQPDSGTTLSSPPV
T1 sequence (P35968 20-1356): as above

B1: TIMP3Cys1-Ser: recombinant TIMP3 protein with reduced metalloproteinase-inhibitory activity, expressed from adenovirus Rad66 (protein)
chain: STCSPSHPQDAFCNSDIVIRAKVVGKKLVKEGPFGTLVYTIKQMKMYRGFTKMPHVQYIHTEASESLCGLKLEVNKYQYLLTGRVYDGKMYTGLCNFVERWDQLTLSQRKGLNYRYHLGCNCKIKSCYYLPCFVTSKNECLWTDMLSNFGYPGYQSKHYACIRQKGGYCSWYRGWAPPDKSIINATDP
On to B1, for which, in data set [1] (MS1 cells infected with wild-type or mutant virus), the “apoptosis after adenovirus infection” value was “No apoptosis was observed”. Moreover, the “proliferative response to VEGF ([3H]thymidine incorporation)” value in [1] (cells infected with Rad-TIMP3Cys1-Ser) is “still inhibited in their proliferative response to VEGF”. The “binding of VEGF to cell surfaces” value in the data set with MS1 endothelial cells is recorded as “reduced binding of VEGF to its cell surfaces”. For the same molecule, the “metalloproteinase-inhibitory activity (reverse zymography of ECM extracts)” value with MMPs [2] is “reduced metalloproteinase-inhibitory activity”.

B2: mutant TIMP3: Sorsby fundus dystrophy-related S156C mutant TIMP3 expressed in PAEKDR endothelial cells (protein)
chain: CTCSPSHPQDAFCNSDIVIRAKVVGKKLVKEGPFGTLVYTIKQMKMYRGFTKMPHVQYIHTEASESLCGLKLEVNKYQYLLTGRVYDGKMYTGLCNFVERWDQLTLSQRKGLNYRYHLGCNCKIKSCYYLPCFVTSKNECLWTDMLSNFGYPGYQCKHYACIRQKGGYCSWYRGWAPPDKSIINATDP
B2: the “cleaved sVEGFR-2 in the CM, more than mock cells” value in the data set on soluble VEGFR-2 was 7- to 8 fold. The “increase in [125I] VEGF binding” value with VEGFR-2 (KDR) is 2-3 fold. The “VEGF-stimulated migration of cells expressing TIMP3 variant” value in the data set on PAEKDR cells [3] was “accentuated migratory response towards VEGF”. Further, the “level of phosphorylated KDR after VEGF stimulation vs mock cells” value in the data set with KDR is around 2 fold. The “increase of VEGF-stimulated ERK1/2 phosphorylation” value in data set [4] is on record as 2-3 fold. The “surface KDR labeling relative to empty vector or WT-TIMP3 cells” value in the data set with surface KDR is listed as “increased fluorescent labeling for surface KDR”. Further, the “MMP inhibitory activity in ECM and CM (reverse zymography)” value in the data set with MMPs [5] is on record as “minimal MMP inhibitory activity”. In addition, the “VEGF-stimulated formation of membrane ruffles” value in the data set on PAEKDR cells [6] is given as “a majority of mutant cells showed more striking edge ruffles”. For the same molecule, the VEGF-stimulated tube formation entry in the data set on PAEKDR cells [7] was “forming extensive tubular networks, but by day 5 the tubular structures started to regress and collapse”.
